Test results reported in patent publication US12723255B2, “Herbicide tolerance genes and methods of use thereof” (priority 2014, dated 2026).
Like-named read-outs stand apart in the source and are kept apart here.

What was measured:
[1] = kinetic analysis, non-endpoint assay at 23° C.; type: biochemical; conditions: for Vmax 2,4-D / Km / Vmax Quizalofop: Table 10 series, unit as defined
From the text: For the fifth screen, recombinant protein for each of the eleven engineered proteins was produced and purified for an in-depth biochemical analysis. This biochemical analysis included: (1) kinetic analysis (Vmax and Km), (2) activity assays over a range of temperatures, (3) protein melting analysis, (4) activity on additional AOPP herbicides substrates, and (5) mass spectrometry analysis on peptides to confirm identity. The biochemical analyses were also done with purified recombinant wild-type protein and MON-HT55 protein for comparison. For the kinetic analysis, a non-endpoint assay was conducted at 23° C. with either quizalofop-P or 2,4-D as substrate. The recombinant proteins for these assays were produced in bacteria and purified using a 6-His tag fused at the C-terminal end of the protein. Results of the kinetic analysis with either quizalofop-P or 2,4-D as substrate are presented for ten of the engineered proteins, wild-type protein, and MON-HT55 protein in Table 7 (standard error is shown in parenthetical). Vmax is expressed as specific activity, umol herbicide product mg enzyme-1 min-1; Km expressed as mM herbicide substrate. […] The differentiation of the protein kinetics for MON-HTI and MON-HT7 were surprising because there are only four amino acid differences between MON-HT1 and MON-HT7. Specifically, MON-HT1 has the following amino acids at the indicated position: 182; F105; T112; and V273, and MON-HT7 has the following amino acids at the indicated position: L82; V105; S112; and A273.
Kinetic analysis using a non-endpoint assay was conducted at 23° C. with either quizalofop-P or 2,4-D as substrate, as detailed above for purified protein of the wild-type enzyme, MON-HT1, MON-HT13, MON-HT15, and MON-HT17.

[2] = type: physicochemical; conditions: Table 11 series
Description: A protein melting analysis was also conducted. For the protein melting determinations, purified enzyme was added to 96-well microtiter plates in standard storage buffer (30 mM Tris pH7.5, 150 mM NaCl) with or without 50 uM Fe2+ and 1.0 mM aKG. Protein unfolding was then detected with SYPRO® orange protein gel stain (Invitrogen™ catalog #S6651, Life Technologies, Grand Island, NY) in a BioRad CFX96™ Real time PCR machine (BioRad, Hercules, CA) with readings taken between 10° C. to 95° C. in 0.5° C. steps. […] In contrast, 50 uM Fe2+ and 1.0 mM aKG had little effect on the stability of any of the engineered proteins. MON-HT55, MON-HT3, MON-HT4, MON-HT6, and MON-HT10 had melting temperatures in the range of 41° C. to 48° C., which is below the melting temperature of the wild-type enzyme. MON-HT1, MON-HT2, MON-HT5, MON-HT7, MON-HT8, and MON-HT9 had melting temperatures between 58° C. and 67° C., which is 8° C. to 17° C. higher than the wild-type enzyme. For MON-HT7 and MON-HT1, the difference in melting point was 11° C. in buffer without Fe2+ and aKG and 8° C. in buffer with Fe2+ and aKG. This was surprising since there are only four amino acid differences between the two enzymes.
A protein melting analysis was conducted as detailed above. The melting temperatures of MON-HT13, MON-HT15, and MON-HT17 was similar to the melting temperature of MON-HT1 with T1/2 in buffer in the range of 55-58° C., and with T1/2 in buffer plus Fe2+ and aKG in the range of 60-62° C.

[3] = tested on: transgenic soybean plants; experiment: R0 soybean 2,4-D spray test of 2,4-D optimized variants; type: in vivo; conditions: for tolerance to 2,4-D treatment: 2× application rate, soy
From the text: An additional five engineered proteins optimized for activity for 2,4-D were then selected for analysis in transgenic soybean. DNA constructs were produced for expressing MON-HT13 (SEQ ID NO:47), MON-HT14 (SEQ ID NO:48), MON-HT15 (SEQ ID NO:49), MON-HT17 (SEQ ID NO:51), and MON-HT18 (SEQ ID NO:52) with codon usage optimized for dicot expression. The operably linked expression elements (promoter, leader, intron, CTP, and 3′UTR) were identical in all of the constructs. Leaf samples were taken from R0 plantlets and single copy plants were identified using a PCR-based assay. When the single-copy R0 plants had approximately two to three trifoliate leaves, they were treated with either 1.5 lb ae/acre (2×) or 3.0 lb ae/acre (4×) of 2,4-D. Seven days after herbicide application, the plants were scored for herbicide injury based on the percent area of the plant showing injury, as indicated above.

[4] = enzyme activity assay at 23° C. with purified enzyme; type: biochemical; conditions: for activity with fluroxypyr as the substrate / activity with triclopyr as the substrate: not robust enough to quantify; for MCPA Km / MCPA Vmax / Mecoprop Km: percentage of wild-type RdpA, set at 100%
Description: The enzyme activity of MON-HT protein variants with triclopyr, fluroxypyr, MCPA, MCPB, mecoprop, as substrates was determined using the enzyme activity assay conducted at 23° C. with purified enzyme. The activity was recorded as the maximum activity as a percentage of the wild-type RdpA enzyme's activity, which was set at 100%. […] The enzymatic activity with mecoprop as a substrate was reduced for each of the MON-HT1, MON-HT13, MON-HT15, and MON-HT17 variants compared to the wild-type RdpA enzyme. An unexpected result was that enzymatic activity with MCPA as a substrate was roughly 6-fold greater for MON-HT1, and approximately 10-fold greater for MON-HT13, MON-HT15, and MON-HT17 compared to the wild-type RdpA enzyme.

[5] = 23° C., read-out: Km Quizalofop
[6] = 2,4-D rate 2X (1.5 lb ae/acre), single copy R0 soy, seven days after application

B1: MON-HT13: engineered oxygenase protein, amino acid sequence SEQ ID NO:47 (protein)
chain: MHAALTPLTNKYRFIDVQPLTGVLGAEITGVDLREPLDDSTWNEILDAFHTYQVIYFPGQAITNEQHIAFSRRFGPVDPVPILKSIEGYPEVQMIRREANESSRYIGDDWHADSTFLDAPPAAVVMRAIEVPEYGGDTGFLSMYSAWETLSPTMQATIEGLNVVHSATKVFGSLYQATNWRFSGTSVKVMDVDAGDRETVHPLVVTHPVTGRRALYCNQVYCQKIQGMTDAESKSLLQFLYEHATQFDFTCRVRWKKDQVLVWDNLCTMHRAVPDYAGKFRYLTRTTVAGDKPSR
enzymatic activity with quizalofop compared with MON-HT1 [1]: roughly similar to the activity of MON-HT1 | Vmax 2,4-D [1]: 3.38 (0.05) umol herbicide product mg enzyme-1 min-1 | Km ([1]; read-out: Km 2,4-D): 80 µM | Vmax Quizalofop ([1]; 23° C.): 1.51 (0.05) umol herbicide product mg enzyme-1 min-1 | Km [1, 5]: 120 µM | Melting temp, Buffer [2]: 57 °C | Melting temp, Buffer plus Fe2+ and aKG [2]: 62 °C | Events with 20-50% injury [3, 6]: 1 | Events with <20% injury [3, 6]: 12 | tolerance to 2,4-D treatment [3]: excellent tolerance | activity with MCPB as the substrate [4]: no detectable activity | enzymatic activity with MCPA greater compared to the wild-type RdpA enzyme [4]: approximately 10 fold | activity with fluroxypyr as the substrate [4]: detectable activity | activity with triclopyr as the substrate [4]: detectable activity | MCPA Km [4]: 68% | MCPA Vmax [4]: 1800% | Mecoprop Km [4]: 92%

B2: MON-HT15: engineered oxygenase protein, amino acid sequence SEQ ID NO:49 (protein)
chain: MHAALTPLTNKYRHIDVQPLTGVLGAEITGVDLREPLDDSTWNEILDAFHTYQVIYFPGQAITNEQHIAFSRRFGPVDPVPILKSIEGYPEVQMIRREANESSRYIGDDWHADSTFLDAPPAAVVMRAIEVPEYGGDTGFLSMYSAWETLSPAMQATIEGLNVVHSATKVFGSLYQATNWRFSNTSVKVMDVDAGDRETVHPLVVTHPVTGRRALYCNQIYCQKIQGMTDAESKSLLQFLYEHATQFDFTCRVRWKKDQVLVWDNLCTMHRAVPDYAGKFRYLTRTTVAGDKPSR
enzymatic activity with quizalofop compared with MON-HT1 [1]: roughly similar to the activity of MON-HT1 | Vmax 2,4-D [1]: 3.53 (0.04) umol herbicide product mg enzyme-1 min-1 | Km ([1]; read-out: Km 2,4-D): 70 µM | Vmax Quizalofop ([1]; 23° C.): 1.52 (0.06) umol herbicide product mg enzyme-1 min-1 | Km [1, 5]: 120 µM | Melting temp, Buffer [2]: 55 °C | Melting temp, Buffer plus Fe2+ and aKG [2]: 60 °C | Events with <20% injury [3, 6]: 5 | tolerance to 2,4-D treatment [3]: excellent tolerance | activity with MCPB as the substrate [4]: no detectable activity | enzymatic activity with MCPA greater compared to the wild-type RdpA enzyme [4]: approximately 10 fold | activity with fluroxypyr as the substrate [4]: detectable activity | activity with triclopyr as the substrate [4]: detectable activity | MCPA Km [4]: 59% | MCPA Vmax [4]: 1300% | Mecoprop Km [4]: 57%

B3: MON-HT17: engineered oxygenase protein, amino acid sequence SEQ ID NO:51 (protein)
chain: MHAALTPLTNKYRFIDVQPLTGVLGAEITGVDLREPLDDSTWNEILDAFHTYQVIYFPGQAITNEQHIAFSRRFGPVDPVPILKSIEGYPEVQMIRREANESSRYIGDDWHADSTFLDAPPAAVVMRAIEVPEYGGDTGFLSMYSAWETLSPTMQATIEGLNVVHSATKVFGSLYQATNWRFSNTSVKVMDVDAGDRETVHPLVVTHPVTGRRALYCNQVYCQKIQGMTDAESKSLLQFLYEHATQFDFTCRVRWKKDQVLVWDNLCTMHRAVPDYAGKFRYLTRTTVAGDKPSR
enzymatic activity with quizalofop compared with MON-HT1 [1]: roughly similar to the activity of MON-HT1 | Vmax 2,4-D [1]: 2.91 (0.04) umol herbicide product mg enzyme-1 min-1 | Km ([1]; read-out: Km 2,4-D): 70 µM | Vmax Quizalofop ([1]; 23° C.): 1.53 (0.05) umol herbicide product mg enzyme-1 min-1 | Km [1, 5]: 140 µM | Melting temp, Buffer [2]: 57 °C | Melting temp, Buffer plus Fe2+ and aKG [2]: 61 °C | Events with <20% injury [3, 6]: 12 | tolerance to 2,4-D treatment [3]: excellent tolerance | activity with MCPB as the substrate [4]: no detectable activity | enzymatic activity with MCPA greater compared to the wild-type RdpA enzyme [4]: approximately 10 fold | activity with fluroxypyr as the substrate [4]: detectable activity | activity with triclopyr as the substrate [4]: detectable activity | MCPA Km [4]: 62% | MCPA Vmax [4]: 1400% | Mecoprop Km [4]: 65%
